# Results as given in the supplement of paper PMC7125110.
# ± gives the standard error. Variants at the floor of the assay were thinned out.
# B1: glmS ribozyme (parent)
# chain: AUAAAAGCGCCAGAACUACAGAAAUGUAGUUGACGAGGAGGAGGUUUAUCGAAUUUUCGGCGGAUGCCUCCAAA
# What was measured:
# Conditions in all cases: with glucosamine-6-phosphate
# glucosamine-6-phosphate [1] = variants of: B1; experiment: self-cleavage kobs at 40 uM GlcN6P; higher = faster cleavage; RNA array
# Summary of the method: (§1)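 The measurements used barcoded ribozyme variants on sequenced MiSeq chips, transcribed in situ by E. coli RNA polymerase and tracked at 37 °C with a hybridised Cy3 probe. Glucosamine-6-phosphate, 40 μM to 10 mM in HEPES/KCl/Mg(OAc)2 buffer, was flowed in while tiles were imaged over ~14 h. Baseline-normalised signals, also normalised to non-cleaving reference variants, gave per-tile medians that were fit to one- or two-exponential decays for kobs. kcat and KM resulted from weighted Michaelis–Menten fits across concentrations.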
# glucosamine-6-phosphate [2] = variants of: B1; experiment: self-cleavage kobs at 640 uM GlcN6P; higher = faster cleavage; RNA array
# Summary of the method: as §1
# glucosamine-6-phosphate [3] = variants of: B1; experiment: self-cleavage kobs at 2500 uM GlcN6P; higher = faster cleavage; RNA array
# Summary of the method: as §1
# glucosamine-6-phosphate [4] = variants of: B1; experiment: self-cleavage kobs at 10000 uM GlcN6P; higher = faster cleavage; RNA array
# Summary of the method: as §1
# glucosamine-6-phosphate [5] = variants of: B1; experiment: self-cleavage kobs at 160 uM GlcN6P; higher = faster cleavage; RNA array
# Summary of the method: as §1
Variant,self-cleavage kobs at 40 uM GlcN6P (glucosamine-6-phosphate [1]),self-cleavage kobs at 640 uM GlcN6P (glucosamine-6-phosphate [2]),self-cleavage kobs at 2500 uM GlcN6P (glucosamine-6-phosphate [3]),self-cleavage kobs at 10000 uM GlcN6P (glucosamine-6-phosphate [4]),self-cleavage kobs at 160 uM GlcN6P (glucosamine-6-phosphate [5])
AUAAACGCGCCAGAACUACAGAAAUGUAGUUCACGAGGAGGAGGUUUAUCGAAUUUUGGGCGGAUGCCUCCAAA [A6C G32C C58G],< 1e-05 s⁻¹,< 1e-05 s⁻¹,< 1e-05 s⁻¹,,
AUAAACGCGCCAGAACUACAGAAAUGUAGUUGACGAGGAUGCGGAUUAUCGAAUUUUCCGGGGUUGCCUCCAAA [A6C G40U A42C U45A G59C C61G A64U],< 1e-05 s⁻¹,,< 1e-05 s⁻¹,,
AUAAACGCGGCAGAACUACAGAAAUGUAGUUGACGAGGAGAAGGUUUAGCGAAUUUUCGACGGAUGCCUCCAAA [A6C C10G G41A U49G G60A],< 1e-05 s⁻¹,,,,
AUAAACGCGCCAGAACUACAGAAAUGUAGUUCACGAGGAGGAGGUUAAUCGAAUUUUCGGCGGAUGCCUCCAAA [A6C G32C U47A],< 1e-05 s⁻¹,< 1e-05 s⁻¹,< 1e-05 s⁻¹,,
AUAAACGCGCCAGAACUACAGAAAUGUAGUUGACGUGGAGGAGGUUUAUCGAAUUUUCGGCGGAUGCCUCCAAA [A6C A36U],< 1e-05 s⁻¹,,< 1e-05 s⁻¹,< 1e-05 s⁻¹,
AUAAACGCGCCAGAACUACAGAAAUGUAGUUGACGGGGAGGAGGUUUAUCGAAUUUUCGGCGGAUGCCUCCAAA [A6C A36G],< 1e-05 s⁻¹,< 1e-05 s⁻¹,< 1e-05 s⁻¹,< 1e-05 s⁻¹,< 1e-05 s⁻¹
AUAAACGCGCCAGAACUACAGAAAUGUAGUUCACGAGGAGGAGGUUUAUCGAAUUUUCGUCGGAUGCCUCCAAA [A6C G32C G60U],< 1e-05 s⁻¹,,,< 1e-05 s⁻¹,
AUAAACGCGUCAGAACUACAGAAAUGUAGUUGACGAGGAGGAGGUUUAUCGAAUUUUCGGCGGAUGACUCCAAA [A6C C10U C67A],< 1e-05 s⁻¹,,,,
AUAAACGCGCCAGAACUACAGAAAUGUAGUUGACGAAGAGGAGGUUUAUCGAAUUUUCGGCGGAUGCCUCCAAA [A6C G37A],< 1e-05 s⁻¹,,< 1e-05 s⁻¹,< 1e-05 s⁻¹,< 1e-05 s⁻¹
AUAAACGCGCCACAACUACAGAAAUGUAGUUGACGAGGAGGAGGUUUAUCGAAUUUUCGGCGGAUGCGUCCAAA [A6C G13C C68G],< 1e-05 s⁻¹,,< 1e-05 s⁻¹,,
AUAAACGCGCCAGAACUACAGAAAUGUAGUUGACUGGGAGGAGGUUUAUCGAAUUUUCGGCGUAUGCCUCCAAA [A6C G35U A36G G63U],< 1e-05 s⁻¹,,,,
AUAAACCCGCCAGAACUACAGAAAUGUAGUUGACGAGGAGGCGGUUUAUCGAAUUUUCGGCGGAUGCCUCUAAA [A6C G7C A42C C71U],< 1e-05 s⁻¹,,,< 1e-05 s⁻¹,
AUAAACGCGCCAGAACUACAGAAAUGUAGUUGACGAGGAGGAGUUUUAUCGAAUUUUCGGCGGAUGCGUCCAAA [A6C G44U C68G],< 1e-05 s⁻¹,< 1e-05 s⁻¹,,< 1e-05 s⁻¹,
AUAAACCCGCCAGAACUACAGAAAUGUAGUUGACGAGGCGCAGGUUUAUCGAAUUUUCGGUGGAUGCCUCCAAA [A6C G7C A39C G41C C61U],< 1e-05 s⁻¹,,,,
AUAAACGCGCCAGAAUUACAGAAAUGUAGUUGACGAGGAGGAGGUUUAUCGAAUUUUCGGCGGAUGCCUUCAAA [A6C C16U C70U],< 1e-05 s⁻¹,,,9.69e-05 ± 1.9e-05 s⁻¹,
AUAAACGCGCCAGAACUACAGAAAUGUAGUUGACGAGGAGGGGGUUUAUCGAAUUUUCGGCGGAUGCCUCCAAA [A6C A42G],< 1e-05 s⁻¹,,6.82e-05 ± 1.8e-05 s⁻¹,9.6e-05 ± 1.1e-05 s⁻¹,< 1e-05 s⁻¹
AUAAACGCGCCAGAACUACAGAAAUGUAAUUGACGAGGAAGAGUUUUAUCGAAUUUUCGGCGGAUGCCUCCAAA [A6C G29A G40A G44U],< 1e-05 s⁻¹,,,< 1e-05 s⁻¹,
AUAAACGCGCCAUAACUACAGAAAUGUAGUUGAGGAGGAGGAGGUUUAUCGAAUUUUCGCCGGAUGCCUCCAAA [A6C G13U C34G G60C],< 1e-05 s⁻¹,,,,
AUAAACGCGCCAGAACUACAGAAAUGUAGUUGACGAGGAGUAGGUUUAUCGAAUUUUCGGCGGAAGCCUCCAAA [A6C G41U U65A],< 1e-05 s⁻¹,,,,
AUAAACGCGCCAGAACUACAGAAAUGUAGUUGUCGAGGAGGAGGUUUAUCGAAUUUUCGGCGGAUGCCUCCAAA [A6C A33U],< 1e-05 s⁻¹,< 1e-05 s⁻¹,< 1e-05 s⁻¹,< 1e-05 s⁻¹,
AUAAACGCGCCAGAACUACAGAAAUGUAGUUAAUGAGGAGGAGGUUUAUCGAAGUUUUGGCGGAUACCUCCAAA [A6C G32A C34U U54G C58U G66A],< 1e-05 s⁻¹,,,< 1e-05 s⁻¹,
AUAAACGCGCGAGAACUACAGAAAUGUAGGUGACUAGGAGGAGGUUUAUGGAAUUUUGGGCGGAUGCCUCCAAA [A6C C11G U30G G35U C50G C58G],0.00011 ± 2.3e-05 s⁻¹,,0.000242 ± 4.4e-05 s⁻¹,0.000175 ± 5.1e-05 s⁻¹,
AUAAACGCGCCAGAACUACAGAAAUGUAGUUGACGAGGAGGAGGUUUCUCGAAUUUUCGGCGGAUGCCUCCAAA [A6C A48C],< 1e-05 s⁻¹,< 1e-05 s⁻¹,< 1e-05 s⁻¹,< 1e-05 s⁻¹,< 1e-05 s⁻¹
AUAAACGCGCCAGAACUACAGAAAUGUAGUUGACGAGGAGGAGGUUUAUCGUAUUUUCGGCGGAUGCCUUCAAA [A6C A52U C70U],< 1e-05 s⁻¹,< 1e-05 s⁻¹,,,
AUAAACGCGCCAGAACUACAGAAAUGUAGUUGACGAGGAGGAGGUUUAUCGGGUUUUCGGCGGAUGCCUCCAAA [A6C A52G A53G],< 1e-05 s⁻¹,,,,
AUAAACGUGCCAGAGCUACAGAAAUGUAGUUGACGAGGAGGAGGUUUAUCGAAUUUUCGGCGGAUGCCUCCAAA [A6C C8U A15G],< 1e-05 s⁻¹,,,< 1e-05 s⁻¹,
AUAAACGCGCCAGAACUACAGAAAUGUAGUUGACGAGGAAGAGGUUUAUCGAAUUUUCGGCGGAUGCCUCCAAA [A6C G40A],< 1e-05 s⁻¹,,,2.46e-05 ± 9.8e-06 s⁻¹,< 1e-05 s⁻¹
AUAAACGCGCCAGAACUACAGAAAUGUAGUUGACGAGGAGGAGGUUUAUCCAAUUUUCGGCGGAUGCCUCCAAA [A6C G51C],< 1e-05 s⁻¹,< 1e-05 s⁻¹,< 1e-05 s⁻¹,< 1e-05 s⁻¹,< 1e-05 s⁻¹
AUAAACGCCCCAGAACUACAGAAAUGUAGUUGACGAGGAGGAGGUUUAUCGAAUUUUCGGCGGAUGCCUCCAAA [A6C G9C],< 1e-05 s⁻¹,< 1e-05 s⁻¹,< 1e-05 s⁻¹,< 1e-05 s⁻¹,< 1e-05 s⁻¹
AUAAACGCGUCAGAACUACAGAAAUGUAGUUGGCGAGGAGUAGGUUGAUCGAAUCUUCGGCGGAUGCCUCCAAA [A6C C10U A33G G41U U47G U55C],< 1e-05 s⁻¹,< 1e-05 s⁻¹,,< 1e-05 s⁻¹,
